This experiment concerns the target TEAD. Kind of experiment: IC50 for TEAD binding (TR-FRET test).

Bridges are numbered along the chain shown (N, C = ends). Where no end group is shown, it is not given here. [ ]: non-standard residue; d: D form. hCys = N[C@@H](CCS)C(=O)O; Orn = NCCC[C@H](N)C(=O)O; Dab = NCC[C@H](N)C(=O)O

Chain of TEAD (P28347 209-426): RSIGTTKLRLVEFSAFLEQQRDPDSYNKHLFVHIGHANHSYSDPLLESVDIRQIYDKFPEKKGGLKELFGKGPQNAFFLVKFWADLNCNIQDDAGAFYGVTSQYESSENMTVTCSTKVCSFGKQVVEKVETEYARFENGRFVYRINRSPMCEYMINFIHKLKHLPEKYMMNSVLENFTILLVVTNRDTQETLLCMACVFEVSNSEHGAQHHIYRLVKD

By IC50 is commonly meant the point on the concentration scale where inhibition reaches its midpoint. VPF[hCys]LR[Dab]LPDSFCKPPE (disulfide 4-13) [polypeptide represented by SEQ ID NO.: 6] returned a concentration for half-maximal inhibition (IC50) of 28 nM.

In turn, VPF[hCys]LR[Orn]LPDSFCKPPE (disulfide 4-13) [polypeptide represented by SEQ ID NO.: 5] gave an IC50 of 43 nM.
